Reference: the supplement of paper PMC10567573

B1: EHMT1 (parent)
chain: SARQGELQKVLLMLVDGIDPNFKM
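Also: lentivirally expressed fusions sorted by FACS into six bins by GFP to DsRed ratio, PSI derived from sequencing read proportions per bin multiplied by bin number.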

Variants of: B1
Assay: protein stability index of a GFP-peptide fusion (GPS, HEK-293T) (PSI 1-6); higher = more stable
Conditions: c terminus: a fixed tail appended
Work on SARQGELQKKLLMLVDGIDPNFKM [V10K] yielded a protein stability index of 2.47. With SARQGELQKVLLMLVDGIDPIFKM [N21I] the protein stability index was 1.93. SARQGELQKVFLMLVDGIDPNFKM [L11F] showed a protein stability index of 2.49. SARQGELQKVLLMLVDGIDPNNKM [F22N] showed a protein stability index of 1.56. Work on SARQGEQQKVLLMLVDGIDPNFKM [L7Q] yielded a protein stability index of 1.7. With SANQGELQKVLLMLVDGIDPNFKM [R3N] the protein stability index was 2.38. For SARQGELQKVLLMLVDGIDPQFKM [N21Q], the protein stability index was 1.41. Work on SARCGELQKVLLMLVDGIDPNFKM [Q4C] yielded a protein stability index of 2.29. For SARQGELQKVLKMLVDGIDPNFKM [L12K], the protein stability index was 1.12. Variant SARQGELQKVLLMLVDGINPNFKM [D19N] has a protein stability index of 1.64. SARQGELQKVLLMLVDNIDPNFKM [G17N] gave a protein stability index of 2.78. Variant SARQGNLQKVLLMLVDGIDPNFKM [E6N] has a protein stability index of 2.15. In the case of SARAGELQKVLLMLVDGIDPNFKM [Q4A], the protein stability index is reported as 2.27. With SARQGELQKVLLMLVDGIKPNFKM [D19K] the protein stability index was 1.81. For CARQGELQKVLLMLVDGIDPNFKM [S1C], the protein stability index was 2.34. SARQGELQKVLAMLVDGIDPNFKM [L12A] showed a protein stability index of 1.4. In the case of SARQGEEQKVLLMLVDGIDPNFKM [L7E], the protein stability index is reported as 2.35. In the case of SARQGELQKVLLMLVDYIDPNFKM [G17Y], the protein stability index is reported as 2.38. With SARQGELQKVLLMLVDGKDPNFKM [I18K] the protein stability index was 1.46. Variant SARQGELQKVLLMLVDGIDPNDKM [F22D] has a protein stability index of 2.01. SARQGELQKVLLMDVDGIDPNFKM [L14D] gave a protein stability index of 3.47. Variant SARYGELQKVLLMLVDGIDPNFKM [Q4Y] has a protein stability index of 1.94. For SARQGELQKVLLMLVDGIDPNFQM [K23Q], the protein stability index was 2.39. Variant SARQGELQKALLMLVDGIDPNFKM [V10A] has a protein stability index of 2.33. SARQGELQKVLLMLVDGIDPNVKM [F22V] showed a protein stability index of 1.18. With SARQGELQKVLLMLVDGIDPNFIM [K23I] the protein stability index was 1.59. With SARQGELEKVLLMLVDGIDPNFKM [Q8E] the protein stability index was 2.73. Variant SARQGEHQKVLLMLVDGIDPNFKM [L7H] has a protein stability index of 3.17. In the case of SARQGELHKVLLMLVDGIDPNFKM [Q8H], the protein stability index is reported as 1.93. SARQGELNKVLLMLVDGIDPNFKM [Q8N] gave a protein stability index of 2.23. In the case of EARQGELQKVLLMLVDGIDPNFKM [S1E], the protein stability index is reported as 1.66. Variant SARQGELQKVLLMLVDGNDPNFKM [I18N] has a protein stability index of 2.24. YARQGELQKVLLMLVDGIDPNFKM [S1Y] gave a protein stability index of 1.45. In the case of SARQGELQKVLLMLYDGIDPNFKM [V15Y], the protein stability index is reported as 1.68. Work on SARQGELQKVLLMLVDGIDPNFDM [K23D] yielded a protein stability index of 2.17. With SARQSELQKVLLMLVDGIDPNFKM [G5S] the protein stability index was 1.64. For SARQGELQKVLLMLVDGIDPNHKM [F22H], the protein stability index was 1.56. Work on SARQGELQTVLLMLVDGIDPNFKM [K9T] yielded a protein stability index of 2.9. SARQGELQKVLLMLVQGIDPNFKM [D16Q] gave a protein stability index of 2.49. SARQAELQKVLLMLVDGIDPNFKM [G5A] gave a protein stability index of 2.65. Variant SARQGELQKVLLMLVDHIDPNFKM [G17H] has a protein stability index of 1.87. In the case of SERQGELQKVLLMLVDGIDPNFKM [A2E], the protein stability index is reported as 1.86. With SARQGELQKVLLMLVDGEDPNFKM [I18E] the protein stability index was 2.49. Work on SARQGELQKVLLMLTDGIDPNFKM [V15T] yielded a protein stability index of 1.26. SARQGELQKVALMLVDGIDPNFKM [L11A] showed a protein stability index of 2.11. SARQGELQKVLLMLADGIDPNFKM [V15A] showed a protein stability index of 2.07. In the case of SIRQGELQKVLLMLVDGIDPNFKM [A2I], the protein stability index is reported as 2.21. In the case of SARQGQLQKVLLMLVDGIDPNFKM [E6Q], the protein stability index is reported as 1.87. Variant SARQGESQKVLLMLVDGIDPNFKM [L7S] has a protein stability index of 1.43. Variant SARQGELQKVLLMLVDGQDPNFKM [I18Q] has a protein stability index of 3.19. Variant SARQGELQKVLLMLVDGIDGNFKM [P20G] has a protein stability index of 1.09. Variant SAKQGELQKVLLMLVDGIDPNFKM [R3K] has a protein stability index of 2.8. Variant QARQGELQKVLLMLVDGIDPNFKM [S1Q] has a protein stability index of 2.03. SARQGELQKDLLMLVDGIDPNFKM [V10D] gave a protein stability index of 3.36. SATQGELQKVLLMLVDGIDPNFKM [R3T] showed a protein stability index of 1.76. In the case of SARQGELQKVSLMLVDGIDPNFKM [L11S], the protein stability index is reported as 2.45. For SARQGELQKVLLMLVDGIDPNLKM [F22L], the protein stability index was 1.83. Work on SARQGELQKVLLMLVDVIDPNFKM [G17V] yielded a protein stability index of 3.87. Variant NARQGELQKVLLMLVDGIDPNFKM [S1N] has a protein stability index of 2.67. SARQGELQKHLLMLVDGIDPNFKM [V10H] gave a protein stability index of 2.16. For SARQGELQKVLLMKVDGIDPNFKM [L14K], the protein stability index was 2.74. SARQGELQKVLLMLLDGIDPNFKM [V15L] showed a protein stability index of 1.49. Work on SARQGELQKVLLMLVDGIDPNEKM [F22E] yielded a protein stability index of 2.69. SARQGELQKVLLMLVDGADPNFKM [I18A] gave a protein stability index of 1.18. For SARQGELQKVLLYLVDGIDPNFKM [M13Y], the protein stability index was 2.47. SARQGELQKVLLMLVDGIDPNFKE [M24E] gave a protein stability index of 2.18. Variant SARQGELQKVLLPLVDGIDPNFKM [M13P] has a protein stability index of 3.74. SARQGELQKVLLMIVDGIDPNFKM [L14I] showed a protein stability index of 1.98. Variant SARQGELQKVLLMLVDGIDANFKM [P20A] has a protein stability index of 2.66. In the case of SARQGELQKVLLMLWDGIDPNFKM [V15W], the protein stability index is reported as 2.75. SMRQGELQKVLLMLVDGIDPNFKM [A2M] gave a protein stability index of 2.95. In the case of SARQGELQKVLLMLVDGIDPNTKM [F22T], the protein stability index is reported as 2.21. For SARQGELQKVLLMLVDDIDPNFKM [G17D], the protein stability index was 1.36. In the case of SARQGSLQKVLLMLVDGIDPNFKM [E6S], the protein stability index is reported as 2.6. With SARQGELQKVLLMLVDGIDPNFVM [K23V] the protein stability index was 2.81. For SARQGELQKVLLMLVDGIDPTFKM [N21T], the protein stability index was 1.98. With SARQGELQKVTLMLVDGIDPNFKM [L11T] the protein stability index was 2.36. Work on SARQGELQKVLLMFVDGIDPNFKM [L14F] yielded a protein stability index of 1.93. Work on SARQGELQKVLLFLVDGIDPNFKM [M13F] yielded a protein stability index of 1.83. In the case of SARQGELQKVKLMLVDGIDPNFKM [L11K], the protein stability index is reported as 2.69. In the case of SARQGELQKVLLMLVDPIDPNFKM [G17P], the protein stability index is reported as 1.97. Work on SARQGELQKVLLMSVDGIDPNFKM [L14S] yielded a protein stability index of 3.03. Variant SARQGELQKVLLMYVDGIDPNFKM [L14Y] has a protein stability index of 1.76. SARQGELQKVMLMLVDGIDPNFKM [L11M] showed a protein stability index of 1.38. With SARQGELQKVLLTLVDGIDPNFKM [M13T] the protein stability index was 2.35. SARQGLLQKVLLMLVDGIDPNFKM [E6L] gave a protein stability index of 1.99. SARPGELQKVLLMLVDGIDPNFKM [Q4P] gave a protein stability index of 2.15. SARQGEGQKVLLMLVDGIDPNFKM [L7G] gave a protein stability index of 1.59. SARQGELQKVLLMWVDGIDPNFKM [L14W] gave a protein stability index of 1.79. With SADQGELQKVLLMLVDGIDPNFKM [R3D] the protein stability index was 1.78. Work on SARDGELQKVLLMLVDGIDPNFKM [Q4D] yielded a protein stability index of 1.61. Work on SARQGELQKVLLKLVDGIDPNFKM [M13K] yielded a protein stability index of 1.89. SARQGELQKVLLMLVDGIDPNFTM [K23T] gave a protein stability index of 2.02. For SARQGETQKVLLMLVDGIDPNFKM [L7T], the protein stability index was 1.62.
